This data set relates to MS2 coat protein. The data set can be described thus: apparent KD of MS2 coat protein; designed switch direction (-1 OFF switch, 1 ON switch): -1; higher = weaker reporter binding. An outline of the steps:
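Designed RNA switches with common flanks were transcribed on Illumina chips by stalled E. coli RNA polymerase and titrated with SNAP-549-labelled MS2 coat protein, from 0.7 or 1.5 nM doubling to 3 µM, in Tris-HCl pH 7.5 buffer with KCl, MgCl2, BSA, DTT, tRNA and Tween-20. Steps lasted 0.8–1.5 h (lowest) to 10–20 min (highest). Titrations ran without input, with 200 uM small-molecule ligand, or with an oligonucleotide input. Normalised cluster fluorescence was curve-fitted, and apparent KD is the per-design median over clusters.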

The mark [1] stands for this setting: Eterna round: R95, input ligand: microRNA oligo, concentration not stated.
The mark [2] stands for this setting: input ligand: microRNA oligo, concentration not stated.

For the sequence “UUUUACAGGCUUAGAUCCUACAUGAGGAUCACCCAUGUGGAGGCGUGUCGUGAGACAUGCCUCUAAGCUCGUCUUGU [JL TOV1 3.74] (Eterna round: R97, puzzle: Sensor, turn-off variant 1)”, the “apparent KD of MS2 coat protein” value reads like this: (input ligand: FMN 200 uM) 0.0862 µM; (input ligand: none) 0.103 µM. The like results for “UUUUACAGGCUUAGAUCCUACAUGAGGAUCACCCAUGUGGUCCGGUGACGUGAGUCACCGGACUAAGCUCGUCUUGU [JL TOV1 3.72] (Eterna round: R97, puzzle: Sensor, turn-off variant 1)” were, in that order, 0.156 µM and 0.143 µM.

Regarding “UUUUACAUAGGAUAUAGUUUCUUUUACAUGAGGAUCACCCAUGUCUCUCCUCUCUCUCUUCUAGAAGGAUGUUUCU [JR_E5_Sub012] (puzzle: Exclusion 5)”, the “apparent KD of MS2 coat protein” value under setting [1] was determined as 0.0861 µM. Same read-out and setting: as for “UUUUACAUAGGAUAUAGUUUGUUGUACAUGAGGAUCACCCAUGUUGUUGGUUGUGCUGUUCUAGAAGGAUGUUUCU [JR_E5_Sub014] (puzzle: Exclusion 5)”, the figure is 0.0373 µM. “UUUUACAUGCUGAGAUCCUACAUGAGGAUCACCCAUGUGGUCCGGUGACGUGAGUCACCGGACUUAGCUCGUCUUGU [salish99_S_TOV1_R5_099] (Eterna round: R97, puzzle: Sensor, turn-off variant 1)”: the “apparent KD of MS2 coat protein” value (input ligand: FMN 200 uM) was 0.186 µM and the “apparent KD of MS2 coat protein” value (input ligand: none) was determined as 0.304 µM. On to “UUUUACUUAGGAUAUACAUUUUUUUAUUUAUUUAUAAUAUUACAUGAGGAUCACCCAUGUAGAAGGGAGAUUUU [My Design] (Eterna round: R96, puzzle: Exclusion 2)”, for which the “apparent KD of MS2 coat protein” value runs as follows: (input ligand: FMN 200 uM) 0.0769 µM; under setting [2], 0.0643 µM; (input ligand: none) 0.0723 µM. As to “UUUUACUUAGGAUAUACAUUUUUUUAUUUAUUUAUAAUAUUACAUGAGGAUCACCCAUGUAGAAGGGAGAUUUU [My Design] (puzzle: Exclusion 2)”, the “apparent KD of MS2 coat protein” value under setting [1] was found to be 0.0781 µM. The same measure, in the same setting: the result for “UUUUAGAGAGGAUAUAUAAAGUGAAACAUGAGGAUCACCCAUGUAAUUUUAUGGAUGUAAAUAGAAGGCUCAUUUA [JL-ex5-3.01] (puzzle: Exclusion 5)” reads 0.0343 µM. “UUUUAGCAAGCGAGUAUUAACAUGAGGAUCACCCAUGUGCAUCCAGUAUUACUUUUAGAUCUUGCUCGUCUUAUAUA [JR_STOV1_v2_Sub083] (Eterna round: R97, puzzle: Sensor, turn-off variant 1)”: the “apparent KD of MS2 coat protein” value (input ligand: FMN 200 uM) was found to be 0.339 µM and the “apparent KD of MS2 coat protein” value (input ligand: none) was 0.381 µM. The corresponding values for “UUUUAGGCAGGAUAUACAUGAGGAUCACCCAUGUAAAUUUUUCGUUUAACUUGAAUGUGUAGAAGGGCCAUUUU [Ex3 #59] (Eterna round: R97, puzzle: Exclusion 3)” are 0.0207 µM and 0.0202 µM. Regarding “UUUUAUAGAGGAUAUGCGUGAAUAUAUAUUCAUGGAAAUUUACAUGAGGAUCACCCAUGUAGAAGGUUGUGUUU [LRO-Excl2-20-mod 090 by JR] (Eterna round: R97, puzzle: Exclusion 2)”, the “apparent KD of MS2 coat protein” value is, setting by setting: (input ligand: FMN 200 uM) 0.0133 µM; (input ligand: none) 0.0119 µM. In the case of “UUUUGAAAGUGAGGAUAUGACAUGAGGAUCACCCAUGUAAAGGGAGUUGACUAUAUAGCAAGAUAUCAGAAGGCACAAAUGUUU [JR_ExcNG2_Sub003] (Eterna round: R96, puzzle: Exclusion NG 2)”, the “apparent KD of MS2 coat protein” value is, setting by setting: (input ligand: FMN 200 uM) 0.367 µM; under setting [2], 0.341 µM; (input ligand: none) 0.645 µM. Turning to “UUUUGACAUGAGGAUCACCCAUGUGAGGAUAUGAUGCGAUCGUCGAAAGACGAUAGCAUCAGAAGGCACAUAUG [Fiskers Ex 1 - 9] (puzzle: Exclusion 1)”, the “apparent KD of MS2 coat protein” value under setting [1] worked out at 0.125 µM. On to “UUUUGGCAAGCGAGAUCCGACAUGAGGAUCACCCAUGUGCGGGCCCGAAAAGGGCCCGCGGUUGCUCGUCUUGUGUG [free energy optimized] (Eterna round: R97, puzzle: Sensor, turn-off variant 1)”, for which the “apparent KD of MS2 coat protein” value by setting is: (input ligand: FMN 200 uM) 0.0157 µM; (input ligand: none) 0.0169 µM.
